In general, Kd refers to the constant that tells how readily two partners part at equilibrium. A higher Kd goes with a looser complex. As usually defined, the stoichiometry N is the number of molecules, sites or subunits per partner or assembly. By Km is commonly meant the concentration of substrate that gives half-maximal velocity. A word on the kcat: it is the number of substrate molecules converted per active site and unit of time at saturation. What is called kcat/Km is the turnover number divided by the Michaelis constant.

The results in this text go back to publication PMC11131964, “Enantioselective transformation of phytoplankton-derived dihydroxypropanesulfonate by marine bacteria” (The ISME Journal, 2024).

Data set [1] addresses T1, RpHpsP (S-DHPS dehydrogenase HpsP, SPO0596) (Ruegeria pomeroyi, UniProt Q5LVU9).
T1 sequence (Q5LVU9 1-332): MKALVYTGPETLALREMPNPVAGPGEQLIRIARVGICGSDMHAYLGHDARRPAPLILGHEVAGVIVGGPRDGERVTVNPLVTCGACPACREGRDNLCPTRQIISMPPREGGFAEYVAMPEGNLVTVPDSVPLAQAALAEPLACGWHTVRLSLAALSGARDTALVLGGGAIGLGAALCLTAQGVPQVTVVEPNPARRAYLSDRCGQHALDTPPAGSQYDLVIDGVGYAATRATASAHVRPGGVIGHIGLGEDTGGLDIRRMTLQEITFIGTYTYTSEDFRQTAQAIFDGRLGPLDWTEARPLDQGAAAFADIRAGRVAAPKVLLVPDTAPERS
Kind of data set: SPR (Biacore T200, CM5 chip); also NADH formation assay. It counts as binding. A general note: Surface plasmon resonance follows binding to a sensor surface in real time, without labels.

For data set [2], the target named is HpsP from Dinoroseobacter shibae DFL 12 (S-DHPS dehydrogenase) (Dinoroseobacter shibae DFL 12) (UniProt A8LJR6). Kind of data set: crystal structure; DsHpsP alone, crystallised at 18°C in 0.2 M sodium formate, 18% PEG 3350; 2.3 Å; oligomer seen in the asymmetric unit.
In data set [3] the target is T2, RpHpsO (R-DHPS dehydrogenase HpsO, SPO0595) (Ruegeria pomeroyi, UniProt Q5LVV0).
T2 sequence (Q5LVV0 1-253): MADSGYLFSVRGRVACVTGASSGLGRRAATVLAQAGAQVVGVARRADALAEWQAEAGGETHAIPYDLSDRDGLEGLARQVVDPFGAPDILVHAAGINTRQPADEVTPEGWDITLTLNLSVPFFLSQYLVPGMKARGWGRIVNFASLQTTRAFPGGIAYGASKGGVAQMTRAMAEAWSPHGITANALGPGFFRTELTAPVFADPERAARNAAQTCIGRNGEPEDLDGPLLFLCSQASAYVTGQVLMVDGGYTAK
As to the kind of experiment: SPR (Biacore T200, CM5 chip); also NADH formation assay, Km […]. It counts as binding.

The target in data set [4] is T3, RpHpsN (R-DHPS dehydrogenase HpsN, SPO0594) (Ruegeria pomeroyi, UniProt Q5LVV1).
T3 sequence (Q5LVV1 1-435): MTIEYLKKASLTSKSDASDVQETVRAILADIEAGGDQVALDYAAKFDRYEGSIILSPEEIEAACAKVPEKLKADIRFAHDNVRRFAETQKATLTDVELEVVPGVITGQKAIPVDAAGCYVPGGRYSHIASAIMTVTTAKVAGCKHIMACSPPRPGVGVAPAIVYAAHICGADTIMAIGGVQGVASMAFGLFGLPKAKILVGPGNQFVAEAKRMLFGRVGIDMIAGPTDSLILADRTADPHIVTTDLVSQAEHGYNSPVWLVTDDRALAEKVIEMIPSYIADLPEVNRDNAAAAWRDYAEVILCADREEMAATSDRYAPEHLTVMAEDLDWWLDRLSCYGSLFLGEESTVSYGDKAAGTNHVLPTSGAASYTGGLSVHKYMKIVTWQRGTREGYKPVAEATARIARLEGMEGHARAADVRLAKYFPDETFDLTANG
Described as above. The class given is binding.

Data set [5] concerns the molecule itself. Kind of data set: crystal structure; RpHpsO alone, crystallised at 20°C in 0.1 M sodium citrate pH 5.4, 0.8 M sodium formate; 1.7 Å; oligomer seen in the asymmetric unit.
Substrate in data set [6]: OC[C@@H](O)[C@@H](O)[C@H](O)[C@@H](O)CO
Kind of data set: Michaelis-Menten kinetics of purified enzyme (Km). The class given is biochemical, Bacillus subtilis.

Substrate in data set [7]: N[C@H](CO)Cc1c[nH]cn1
As to the kind of experiment: Michaelis-Menten kinetics of purified enzyme (Km). It counts as biochemical, Escherichia coli.

Data set [8] deals with the molecule itself. As to the kind of experiment: crystal structure; RpHpsN alone, crystallised at 18°C in 0.1 M Tris pH 7.5, 1.1 M ammonium sulfate; 2.9 Å; oligomer seen in the asymmetric unit.

As to `O=S(=O)(O)C[C@@H](O)CO` [S-DHPS], binding in data set [1] was characterised by a dissociation constant (Kd) of 740 µM.
With “HpsP from Dinoroseobacter shibae DFL 12 (S-DHPS dehydrogenase) (from UniProt A8LJR6 1-512) (enzyme)”, in data set [2], the stoichiometry N worked out at 4.
For the molecule `O=S(=O)(O)C[C@H](O)CO` [R-DHPS], the Kd in data set [3] is 330 µM; in data set [4] it was 860 µM.

B1: HpsO from Ruegeria pomeroyi DSS-3 (R-DHPS dehydrogenase) (enzyme)
chain: MADSGYLFSVRGRVACVTGASSGLGRRAATVLAQAGAQVVGVARRADALAEWQAEAGGETHAIPYDLSDRDGLEGLARQVVDPFGAPDILVHAAGINTRQPADEVTPEGWDITLTLNLSVPFFLSQYLVPGMKARGWGRIVNFASLQTTRAFPGGIAYGASKGGVAQMTRAMAEAWSPHGITANALGPGFFRTELTAPVFADPERAARNAAQTCIGRNGEPEDLDGPLLFLCSQASAYVTGQVLMVDGGYTAK
notes: HpsO, R-DHPS dehydrogenase of the short chain dehydrogenase/reductase family, Ruegeria pomeroyi DSS-3, locus tag SPO0595; Wild type; also called RpHpsO; SPO0595; source: E. coli BL21(DE3), pET28a, purified (HisTrap HP, Superdex 200 gel filtration)
Turning to B1, the “stoichiometry N” value in data set [5] was 4.

B2: D-sorbitol dehydrogenase (Bsubs1_010100003458) (Bacillus subtilis subsp. subtilis str. 168) (protein)
chain: THTVPQNMKAAVMHNTREIKIETLPVPDINHDEVLIKVMAVGICGSDLHYYTNGRIGNYVVEKPFILGHECAGEIAAVGSSVDQFKVGDRVAVEPGVTCGRCEACKEGRYNLCPDVQFLATPPVDGAFVQYIKMRQDFVFLIPDSLSYEEAALIEPFSVGIHAAARTKLQPGSTIAIMGMGPVGLMAVAAAKAFGAGTIIVTDLEPLRLEAAKKMGATHIINIREQDALEEIKTITNDRGVDVAWETAGNPAALQSALASVRRGGKLAIVGLPSQNEIPLNVPFIADNEIDIYGIFRYANTYPKGIEFLASGIVDTKHLVTDQYSLEQTQDAMERALQFKNECLKVMVYPNR
As to B2, in data set [6], the Km turned out to be 32.35 ± 3.59 mM, the kcat was 0.027 ± 0.001 s⁻¹ and the specificity constant (kcat/Km) turned out to be 0.83 ± 0.045 M⁻¹ s⁻¹.

B3: L-histidinol dehydrogenase (Escherichia coli K-12) (protein)
chain: SFNTIIDWNSCTAEQQRQLLMRPAISASESITRTVNDILDNVKARGDEALREYSAKFDKTTVTALKVSAEEIAAASERLSDELKQAMAVAVKNIETFHTAQKLPPVDVETQPGVRCQQVTRPVASVGLYIPGGSAPLFSTVLMLATPASIAGCKKVVLCSPPPIADEILYAAQLCGVQDVFNVGGAQAIAALAFGTESVPKVDKIFGPGNAFVTEAKRQVSQRLDGAAIDMPAGPSEVLVIADSGATPDFVASDLLSQAEHGPDSQVILLTPAADMARRVAEAVERQLAELPRAETARQALNASRLIVTKDLAQCVEISNQYGPEHLIIQTRNARELVDSITSAGSVFLGDWSPESAGDYASGTNHVLPTYGYTATCSSLGLADFQKRMTVQELSKEGFSALASTIETLAAAERLTAHKNAVTLRVNALKEQA
Consider B3, for which, in data set [7], the Michaelis constant (Km) came to 9.37 ± 3.63 mM, the catalytic constant (kcat) was 0.042 ± 0.022 s⁻¹ and the kcat/Km is 4 ± 2 M⁻¹ s⁻¹.

B4: HpsN from Ruegeria pomeroyi DSS-3 (R-DHPS dehydrogenase) (enzyme)
chain: MTIEYLKKASLTSKSDASDVQETVRAILADIEAGGDQVALDYAAKFDRYEGSIILSPEEIEAACAKVPEKLKADIRFAHDNVRRFAETQKATLTDVELEVVPGVITGQKAIPVDAAGCYVPGGRYSHIASAIMTVTTAKVAGCKHIMACSPPRPGVGVAPAIVYAAHICGADTIMAIGGVQGVASMAFGLFGLPKAKILVGPGNQFVAEAKRMLFGRVGIDMIAGPTDSLILADRTADPHIVTTDLVSQAEHGYNSPVWLVTDDRALAEKVIEMIPSYIADLPEVNRDNAAAAWRDYAEVILCADREEMAATSDRYAPEHLTVMAEDLDWWLDRLSCYGSLFLGEESTVSYGDKAAGTNHVLPTSGAASYTGGLSVHKYMKIVTWQRGTREGYKPVAEATARIARLE
notes: HpsN, R-DHPS dehydrogenase (sulfopropanediol 3-dehydrogenase) of the aldehyde dehydrogenase superfamily, Ruegeria pomeroyi DSS-3, locus tag SPO0594; Wild type; Val218-Gly225 and Thr348-Leu374 lack electron density in the crystal structure; also called RpHpsN; SPO0594; source: E. coli BL21(DE3), pET28a, purified (HisTrap HP, Superdex 200 gel filtration)
As for B4, in data set [8], the “stoichiometry N” value is 4.
